Common to all, as to assay: BLI
(In general: BLI is a label-free optical method that tracks binding on a fibre tip over time.)

Test [1] deals with human IgG1 Fc-YEY variant (M252Y/N286E/N434Y) of the pH-dependent mAbs (human).
Test [2] concerns the target human IgG1 Fc-YTE variant (M252Y/S254T/T256E) of the pH-dependent mAbs (human).
In test [3] the target is human IgG1 wild-type (WT) Fc variant of the pH-dependent mAbs (human).
Test [4] deals with human IgG1 Fc-YPY variant (M252Y/V308P/N434Y) of the pH-dependent mAbs (human).
For test [5], the target named is human IgG1 Fc-YEY variant (M252Y/N286E/N434Y) of the pH-dependent mAbs (human). This is another data set of the same source.
Test [6] has as its target human IgG1 Fc-YTE variant (M252Y/S254T/T256E) of the pH-dependent mAbs (human). The source holds these as a separate data set.
The target in test [7] is human IgG1 wild-type (WT) Fc variant of the pH-dependent mAbs (human). This is another data set of the same source.
The target of test [8] is human IgG1 Fc-YPY variant (M252Y/V308P/N434Y) of the pH-dependent mAbs (human). The source holds these as a separate data set.

Where two headings read alike, the source gives them in different places. Some results are limits rather than exact numbers.

On to “human FcRn (human neonatal Fc receptor) (from UniProt P55899 24-365)”, for which the dissociation constant Kd (usually a measure of binding affinity in units of concentration) is 22 nM in test [1]; 760 nM in test [2]; above 10000 nM in test [3]; 14 nM in test [4]; 3.1 nM in test [5]; 30 nM in test [6]. Besides, the results for the Kd in test [7] and in test [8] were 185 nM and 1.6 nM, respectively.
For the substance “cyno FcRn (cynomolgus monkey neonatal Fc receptor) (from UniProt Q8SPV9 24-365)”, the Kd in test [1] is 66 nM; in test [2], 1110 nM; in test [4], 28 nM; in test [5], 4.3 nM; in test [6], 76 nM; in test [7], 853 nM. This substance came in with a Kd in test [8] of 2.2 nM.
